Experimental data from patent publication KR20190016466A.

What follows are substances tested against human FcRn (hFcRn) (human) (UniProt P55899) (assay: ELISA, antibody coated, hFcRn added, anti-6-His detection, pH 7.4; reference WT).
UniProt P55899, sequence (P55899 24-297 limits assumed, form in doubt): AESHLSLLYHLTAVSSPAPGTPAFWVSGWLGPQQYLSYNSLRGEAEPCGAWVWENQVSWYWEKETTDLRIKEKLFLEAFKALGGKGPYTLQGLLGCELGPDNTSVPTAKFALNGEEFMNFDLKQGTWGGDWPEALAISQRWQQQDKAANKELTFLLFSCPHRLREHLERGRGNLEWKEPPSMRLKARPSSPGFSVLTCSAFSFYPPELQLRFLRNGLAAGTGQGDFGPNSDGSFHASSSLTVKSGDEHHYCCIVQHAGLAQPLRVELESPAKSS

Substance | fold increase of affinity over WT
MST (M281Y/S283T/T285E) 변이 SO57 항체 (antibody) | 2 배 (fold)
HN (H462K/N463F) 변이 SO57 항체 (antibody) | 17 배 (fold)
MN (M457L/N463S) 변이 SO57 항체 (antibody) | 15 배 (fold)

What follows are substances tested against human FcRn (hFcRn) (human) (UniProt P55899) (assay: SPR (XPR36), hFcRn on chip, antibody flowed, pH 6.0).

Substance | RU [RU]
MST (M281Y/S283T/T285E) 변이 SO57 항체 (antibody) | 140
HN (H462K/N463F) 변이 SO57 항체 (antibody) | 195
MN (M457L/N463S) 변이 SO57 항체 (antibody) | 180

Each substance was assayed against human FcRn (hFcRn) (human) (UniProt P55899) (assay: ELISA, antibody coated, hFcRn added, anti-6-His detection, pH 6.0; reference WT).

Substance | fold increase of affinity over WT
MST (M281Y/S283T/T285E) 변이 SO57 항체 (antibody) | 12 배 (fold)
HN (H462K/N463F) 변이 SO57 항체 (antibody) | 18 배 (fold)
MN (M457L/N463S) 변이 SO57 항체 (antibody) | 16 배 (fold)

These substances were tested against human FcRn (hFcRn) (human) (UniProt P55899) (assay: SPR (XPR36), hFcRn on chip, antibody flowed, pH 7.4).

Substance | RU [RU]
MST (M281Y/S283T/T285E) 변이 SO57 항체 (antibody) | 20
HN (H462K/N463F) 변이 SO57 항체 (antibody) | 100
MN (M457L/N463S) 변이 SO57 항체 (antibody) | 70
